Legend:
Assay type in all cases: cell-based
canine cell lines = assay: Cell Death ELISA apoptosis assay, canine cell lines; conditions: 100 ng/ml (FIG. 20B and data not shown)
Method: (§1) 4. Cell Death Detection ELISA Plus assay for apoptosis. The assay is based on a quantitative sandwich-enzyme-immunoassay-principle using mouse monoclonal antibodies directed against DNA and histones, respectively. This allows the specific determination of mono- and oligonucleosomes in the cytoplasmatic fraction of cell lysates. Roche kit, Cat. # 1 774 425, was used for this assay. 0.1 ml of U937 or any other types of cells (2×104 ) and 0.1 ml of tissue culture supernatant or other solutions containing apoptosis inducing agents (e.g. TRAIL) were used for this assay in 48-well plate. After 24 or 48 hrs of incubation at 3 7° C., the cells were spun at 2,000 rpm for 10 minutes. Cell pellet was then resuspended in 200 ul lysis buffer and incubated for 30 minutes at room temperature. The cell lysate was then centrifuged at 2,000 rpm for 10 minutes and diluted at 1:10 with incubation buffer. 20 ul of diluted lysate was added to coated plate (MTP from kit) and 80 ul of the immunoreagent was added to each well. MTP was then covered with adhesive cover foil and incubated under gentle shaking for 2 hours at room temperature. The solution was then removed thoroughly by tapping and subsequently rinsed 3 times with 250 ul incubation buffer. 100 ul ABTS solution was added and incubated on a plate shaker at 250 rpm for 15 minutes. Readings at 405 nm and 490 nm (background) were done on ELISA reader.

U937 human tumor cells [1] = assay: Annexin V FACS apoptosis assay, U937
Description: 5. Annexin V apoptosis assay. ApoScreen Annexin V Apoptosis Kit (Cat. No. 10010-02, Southern Biotechnology Assoc. Inc.) was used for this assay. Annexin V detects the change in position of phosphatidy serine (PS) in the cell membrane. In non-apoptotic cells, most phosphatidyl serine molecules are at the inner layer of the plasma membrane. After inducing apoptosis, PS redistributes to the outer layer of the membrane. PS translocation precedes other apoptotic events allowing early detection of apoptosis. 1 ml of U937 cells (2×10^4) or any other types of cells and 1 ml of supernatant or other solutions containing apoptosis inducing agents (e.g. TRAIL) were used for assay in 6-well plate. After 48 hrs of incubation, cells were washed in 2 ml of cold PBS (Phosphate-buffered saline) and resuspended in 100 ul of cold 1× binding buffer. 10 ul of Annexin V-FITC was added to each tube and the tube was gently vortexed and subsequently incubated for 15 minutes in the dark at 4° C. 200 ul of cold 1× binding buffer was added to each tube and 10 ul-of PI was also added to each tube. The staining was then analyzed by flow cytometry.
U937 human tumor cells were grown in the presence or absence of TRAIL proteins produced from conditioned media of transfected 293 cells. The apoptosis of U937 cells induced by conditioned media was measured in this assay. […]

U937 human tumor cells [2] = assay: Cell Death Detection ELISA apoptosis assay, U937
Method: as §1, with “reader. […]” for “reader.”

B1: human commercial TRAIL: human TRAIL (Upstate Biotechnology, 100 ng/ml), positive control (protein, UniProt P50591 1-281, looked up)
Tumor necrosis factor ligand …: MAMMEVQGGPSLGQTCVLIVIFTVLLQSLCVAVTYVYFTNELKQMQDKYSKSGIACFLKEDDSYWDPNDEESMNSPCWQVKWQLRQLVRKMILRTSEETISTVQEKQQNISPLVRERGPQRVAAHITGTRGRSNTLSSPNSKNEKALGRKINSWESSRSGHSFLSNLHLRNGELVIHEKGFYYIYSQTYFRFQEEIKENTKNDKQMVQYIYKYTSYPDPILLMKSARNSCWSKDAEYGLYSIYQGGIFELKENDRIFVSVTNEHLIDMDHEASFFGAFLVG
effect on canine cell lines, in words (canine cell lines): very minimal
apoptosis of U937 cells (U937 human tumor cells [1]; conditioned media of transfected 293 cells, background 15-20% (FIG. 9C)): 45%
apoptosis of U937 cells (U937 human tumor cells [1]; experiment with bacteria expressed semi-purified TRAIL-Thio proteins (FIG. 12)): above 85%
apoptosis specific cell death of U937 cells, times that of control (U937 human tumor cells [2]; conditioned media of transfected 293 cells, two independent experiments (FIG. 9B)): 7 times that of control
induction of apoptosis of U937 cells, in words (U937 human tumor cells [2]; mammalian expressed TRAIL supernatants, commercial human TRAIL and Fas ligand 100 ng/ml (FIGS. 19B, 20B, 21B)): induced potent apoptosis

Source: patent US20040146896A1, “Methods and compositions for diagnosing and treating companion animal cancer” (priority 2002, published 2004)
